Literature values as cited in article PMC3791837.

Molecular target: FcγRIIA (Homo sapiens) (UniProt P12318)
Assay: confocal analysis of transfected cells

Sequence of UniProt P12318 (P12318 34-217): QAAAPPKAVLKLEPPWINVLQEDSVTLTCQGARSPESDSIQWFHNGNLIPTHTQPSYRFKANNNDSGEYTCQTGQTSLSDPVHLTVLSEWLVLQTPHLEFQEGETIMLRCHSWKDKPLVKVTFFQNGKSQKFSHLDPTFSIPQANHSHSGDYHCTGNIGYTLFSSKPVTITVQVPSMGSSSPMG

Substance: CRP (from UniProt P02741)
- Kd: 3.7 µM
